Reference: article PMC6639074 (eLife, 2019)

Molecular target: T1, GFP-FLAG-STAMBPL1 (human, UniProt Q96FJ0 1-436)
T1 construct: STAMBPL1, human, amplified from FLAG-HA-STAMBPL1; GAGAGA linker between GFP and FLAG; also called GFP-STAMBPL1; recombinant STAMBPL1; source: HEK293T, transfected, purified (FLAG M2 resin, 3X FLAG peptide); MEFs, transfected (relocation imaging); not shown: GFP, N-terminal, kept; FLAG, N-terminal, kept
T1 sequence (looked up): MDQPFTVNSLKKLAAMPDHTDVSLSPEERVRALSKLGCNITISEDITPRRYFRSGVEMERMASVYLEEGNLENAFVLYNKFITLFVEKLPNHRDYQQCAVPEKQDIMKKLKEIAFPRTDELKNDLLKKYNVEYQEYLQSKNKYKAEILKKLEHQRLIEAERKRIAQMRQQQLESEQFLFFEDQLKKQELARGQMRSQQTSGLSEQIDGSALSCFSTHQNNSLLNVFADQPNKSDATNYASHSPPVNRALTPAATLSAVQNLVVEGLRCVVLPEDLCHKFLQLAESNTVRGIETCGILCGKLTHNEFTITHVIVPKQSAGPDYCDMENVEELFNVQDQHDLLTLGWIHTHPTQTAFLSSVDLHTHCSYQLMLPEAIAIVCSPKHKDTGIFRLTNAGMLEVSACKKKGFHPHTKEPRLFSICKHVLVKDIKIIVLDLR
Assay: pull-down; purified GFP-FLAG-STAMBPL1 applied to GST-Rab beads with 100 uM GppNHp or GDP, 4 C, 2 hr, high salt elution, Coomassie stained gel
Settings: both partners purified

binding result: binds
B1: GST-Rab2A(Q65L) (natural protein, human, UniProt P61019 1-212, looked up)
chain: MAYAYLFKYIIIGDTGVGKSCLLLQFTDKRFQPVHDLTIGVEFGARMITIDGKQIKLQIWDTAGLESFRSITRSYYRGAAGALLVYDITRRDTFNHLTTWLEDARQHSNSNMVIMLIGNKSDLESRREVKKEEGEAFAREHGLIFMETSAKTASNVEEAFINTAKEIYEKIQEGVFDINNEANGIKIGPQHAATNATHAGNQGGQQAGGGCC
notes: with GppNHp; also called GST-Rab2A QL; recombinant Rab2A
